The data set deals with the molecule itself. The data set is described as follows: SEC. For orientation: Size exclusion chromatography separates by hydrodynamic size, large species first.

B1: His6-eVP40 (Ebola virus matrix protein VP40) (natural protein)
chain: MRRVILPTAPPEYMEAIYPVRSNSTIARGGNSNTGFLTPESVNGDTPSNPLRPIADDTIDHASHTPGSVSSAFILEAMVNVISGPKVLMKQIPIWLPLGVADQKTYSFDSTTAAIMLASYTITHFGKATNPLVRVNRLGPGIPDHPLRLLRIGNQAFLQEFVLPPVQLPQYFTFDLTALKLITQPLPAATWTDDTPTGSNGALRPGISFHPKLRPILLPNKSGKKGNSADLTSPEKIQAIMTSLQDFKIVPIDPTKNIMGIEVPETLVHKLTGKKVTSKNGQPIIPVLLPKYIGLDPVAPGDLTMVITQDCDTCHSPASLPAVIEK
In general, stoichiometry N refers to the number of molecules, sites or subunits per partner or assembly. As for B1, the “stoichiometry N” value worked out at 2.
